Measurements: patent publication US20250161408A1, “PEPTIDIC INHIBITORS OF AMYLOID SELF- AND CROSS-ASSEMBLY” (TECHNISCHE UNIVERSITÄT MÜNCHEN, priority 2022, published 2025)

Legend:
[1] = target: Aβ42 (Homo sapiens (Human)) (UniProt P05067)
[2] = target: Aβ42 fibrils (fAβ42) (Homo sapiens (Human)) (UniProt P05067)
[3] = target: IAPP fibrils (fIAPP) (human) (UniProt P10997)
[4] = target: islet amyloid polypeptide (IAPP) (human) (UniProt P10997)

proteinase K digestion of hf-Aβ42/Nle3-VF followed by dot blot (6E10) [1]: 30 min | proteinase K digestion followed by dot blot (6E10) [2]: 2 h | proteinase K digestion followed by dot blot (anti-fIAPP antibody) [3]: > 30 h | proteinase K digestion of hf-IAPP/ACM followed by dot blot [4]: < 6 h
Substance: proteinase K (PK) (from UniProt P06873) (enzyme)
